Test results from the supplement of paper PMC10126150.
± gives the standard deviation of the averaged measurements.

test system: ATP; assay: switch fluorescence ratio, 500 uM ATP over buffer (Cy3 cluster intensity, sum of 5 cycles each) (fold (ratio)); higher = stronger signal-on switching upon ATP binding; sequences stand for … in TCGTCGGCAGCGTCAGATGTGTATAAGAGACAGTTTTTTTTTTTTTTTTTTTTTTTTT…TC; conditions: aptamer strand: ATP DNA aptamer (quencher-CACCTGGGGGAGTATTGCGGAGGAAGG + anchor), 100 nM annealed; ATP concentration: 500 uM
Summary of the method: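 Values give the fluorescence ratio for each switch-domain sequence, averaged from per-cluster ratios of summed target-cycle to summed buffer-cycle Cy3 intensity. The Cy3-labelled switching-strand clusters sat on a modified Illumina MiSeq flow-cell, were annealed to 100 nM quencher-labelled ATP aptamer, and were imaged in selection buffer, then after 15 min with 500 uM ATP at 22 °C. Five cycles ran with NaOH stripping and re-annealing between them, and clusters outside 100-1000 RFU were excluded.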
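Note: ATP exposure 15 min at 22 °C before imaging.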

| Sequence | switch fluorescence ratio |
| --- | --- |
| TGTTGTGTAG | 0.977 ± 0.021 |
| TTGGGCTGGA | 0.961 ± 0.054 |
| GAAGGGCGGC | 1.01 ± 0.024 |
| CGTTTTTCCG | 1.08 ± 0.032 |
| TAAGTGACAA | 1.05 ± 0.019 |
| TGGATAAGTG | 0.998 ± 0.048 |
| GGAGTTGTGA | 0.995 ± 0.021 |
| GATGCGCGTG | 1 ± 0.019 |
| GGGCGTCGTC | 0.993 ± 0.052 |
| GGGGCTGGTT | 0.99 ± 0.024 |
| ACTGGGGGAC | 1.04 ± 0.036 |
| CCCGGCATCT | 1.2197 ± 0.00016 |
| GGTGGGGGTC | 1.02 ± 0.022 |
| GGGACTAGTT | 0.959 ± 0.046 |
| TTGTGTGGCA | 1.02 ± 0.054 |
| TGTCGTTTAC | 1.05 ± 0.021 |
| GTGTTCTTGC | 0.9845 ± 0.0043 |
| TTAGATGAAT | 1 ± 0.033 |
| TTACCACAGC | 1.05 ± 0.041 |
| TAAGCTGTTA | 0.981 ± 0.038 |
| ACTCCATACA | 1.21 ± 0.04 |
| AAGTGAAATT | 1.02 ± 0.018 |
| TACTTTGCTC | 1.03 ± 0.016 |
| TTGCATGCCG | 0.972 ± 0.036 |
| TGAAAAGGTC | 0.982 ± 0.063 |

| Sequence | switch fluorescence ratio |
| --- | --- |
| TGTATGTGAG | 0.98 ± 0.054 |
| TGTGATTTTT | 1.01 ± 0.028 |
| TAAAGTATAT | 0.9976 ± 0.004 |
| CAGTCATTTT | 0.984 ± 0.031 |
| ACTGGGGGTG | 1.07 ± 0.086 |
| TAGTCTAGTG | 0.9812 ± 0.0066 |
| TTGCTGGGG | 0.972 ± 0.037 |
| CGGGGTAGTG | 0.999 ± 0.02 |
| TGTAAAGATT | 1.0093 ± 0.00041 |
| TTTGTTGTTA | 0.994 ± 0.031 |
| CACGTTACTG | 1.66 ± 0.12 |
| AATAGACGAA | 1.01 ± 0.043 |
| GCGAAAACAG | 1 ± 0.088 |
| GAGTTGAATT | 0.993 ± 0.046 |
| TTGTGTAGTT | 1.01 ± 0.024 |
| TCGGATTAAT | 1.05 ± 0.043 |
| TTATGAAATG | 1 ± 0.025 |
| TAACTTCGTG | 1.01 ± 0.031 |
| TGGGACGGGG | 0.984 ± 0.025 |
| TGGACAATGG | 1.03 ± 0.051 |
| CCGGGGGCCT | 1.08 ± 0.032 |
| AGCATGTCTG | 0.986 ± 0.01 |
| AGTAGAATGG | 1.001 ± 0.0004 |
| TGGTAGAGGG | 0.986 ± 0.014 |
| TGGGATATA | 1.01 ± 0.056 |

| Sequence | switch fluorescence ratio |
| --- | --- |
| GGTTAAGAAA | 1.021 ± 0.0081 |
| CCTGGCTATC | 3.44 ± 0.91 |
| ACCTAACAGG | 0.9728 ± 0.0095 |
| AAGTGGAGGG | 0.985 ± 0.021 |
| CGGCACGTTA | 1.06 ± 0.025 |
| CTGTTTACTG | 0.987 ± 0.014 |
| GGGGGCATGA | 0.966 ± 0.015 |
| GGAGTTTGTG | 0.989 ± 0.014 |
| TTTTTGAGAA | 0.983 ± 0.033 |
| TGGGTCATTT | 0.99 ± 0.034 |
| AAGGTGTTGG | 1.04 ± 0.021 |
| CGTGGGGGT | 0.996 ± 0.035 |
| TAGGGTCATT | 0.999 ± 0.029 |
| TAGTATGGGG | 0.976 ± 0.045 |
| CGCTAACTTG | 1.01 ± 0.047 |
| TAGGTCGGGT | 0.984 ± 0.035 |
| GGATTCGGTG | 0.976 ± 0.02 |
| GCGGGGCTAG | 0.989 ± 0.024 |
| AGTGGGTGTT | 1.01 ± 0.045 |
| CTTACGTTAT | 1.13 ± 0.036 |
| ATTAGCAATG | 1.354 ± 0.006 |
| ACAAGGATA | 1.006 ± 0.0077 |
| ACATGGGTGC | 1.11 ± 0.063 |
| CATGTTTGGT | 0.987 ± 0.013 |
| ATGTAGTACG | 1 ± 0.02 |

| Sequence | switch fluorescence ratio |
| --- | --- |
| CATGGGCAG | 0.992 ± 0.034 |
| TTGGTTCGCC | 1.003 ± 0.0097 |
| TTGATCTTGA | 0.955 ± 0.085 |
| CATGGCAACC | 1.158 ± 0.0094 |
| TTTTTATGGT | 0.984 ± 0.027 |
| TCCGGGTTGT | 1.04 ± 0.056 |
| ATTGGAGCAG | 1.055 ± 0.0098 |
| AATTGCATAA | 0.996 ± 0.04 |
| ATACGAGGTC | 1.01 ± 0.03 |
| TAGCTCGGGG | 1.03 ± 0.035 |
| TTTAGTATTT | 1.01 ± 0.037 |
| ATATCGTGCA | 0.9972 ± 0.006 |
| AGCTTGGAAA | 1 ± 0.031 |
| CGGTCTGCGA | 1.05 ± 0.013 |
| GGTAATTCTG | 0.9837 ± 0.0033 |
| AATAGGAAGT | 1.011 ± 0.007 |
| GCAGGGGGTA | 0.999 ± 0.027 |
| AATTAGGGGG | 0.981 ± 0.064 |
| TATGAGGGCG | 1.04 ± 0.041 |
| TTACATGTCC | 1.039 ± 0.0089 |
| GAGCGGGGGG | 0.969 ± 0.022 |
| CCTGGGGTCG | 1.05 ± 0.05 |
| AGTATGTCGA | 1.01 ± 0.015 |
| TTAATCGATG | 1 ± 0.019 |
| TCGTACGTGG | 0.998 ± 0.016 |

| Sequence | switch fluorescence ratio |
| --- | --- |
| GATAGGAGGA | 1 ± 0.027 |
| TTTTAGAAA | 1.02 ± 0.07 |
| GGCTGAAAAA | 0.915 ± 0.056 |
| AGAACGTCTA | 1 ± 0.054 |
| GCATCGCCAT | 1.02 ± 0.029 |
| TTGGGAGGGC | 1.18 ± 0.27 |
| ACTTTCTGGA | 1 ± 0.024 |
| CGGGAGTTCG | 0.992 ± 0.077 |
| TGTTTTTGAG | 0.9888 ± 0.0034 |
| TTTAGTGCCT | 1.04 ± 0.012 |
| TGATCAAATG | 0.989 ± 0.023 |
| GCTTGAAATT | 0.986 ± 0.062 |
| TTGGCTTAGG | 1.05 ± 0.096 |
| ATGGTAAGT | 0.9815 ± 0.0057 |
| GAACGAGGGT | 0.9676 ± 0.0013 |
| TTTTGTAGGT | 0.973 ± 0.056 |
| CGAATTTGCC | 1.01 ± 0.065 |
| GCGGGTGGGG | 1.05 ± 0.029 |
| TGCGTGTGGT | 1.036 ± 0.0046 |
| GGCCAATCAG | 1.018 ± 0.0024 |
| ACGAACGTTG | 1.26 ± 0.089 |
| GGCGGTATAG | 1.02 ± 0.013 |
| TGGTGTATGC | 1.03 ± 0.059 |
| ATGGAACCGT | 1.02 ± 0.027 |
| CGATTCGAGG | 1.03 ± 0.011 |

| Sequence | switch fluorescence ratio |
| --- | --- |
| TTTTCATTTT | 1.05 ± 0.11 |
| TTGGGGAGGT | 1.01 ± 0.037 |
| ATGTTTTGAG | 0.983 ± 0.043 |
| GTTTTTACTG | 1.05 ± 0.081 |
| CTTGGGAGAA | 0.9961 ± 0.0032 |
| ATTTACATTT | 1.02 ± 0.011 |
| AAAATTTATG | 1.01 ± 0.038 |
| ATGCATTGCG | 0.99777 ± 0.00081 |
| CAGGGTTCCG | 1.17 ± 0.28 |
| TCGGTAGTG | 0.985 ± 0.028 |
| GGCCTCGTAC | 1.1 ± 0.02 |
| AAACTCTGCG | 1.05 ± 0.026 |
| GCCAACGGGG | 1 ± 0.028 |
| GGGAGAGGCG | 0.984 ± 0.013 |
| GTTCAGATTG | 1.03 ± 0.0048 |
| ACCCTGCGAG | 1.05 ± 0.032 |
| CGGAGCTACG | 1.49 ± 0.04 |
| AGTATTCGCT | 0.975 ± 0.017 |
| TTCAGCTGAG | 0.9861 ± 0.0091 |
| AAGGTAACGG | 0.972 ± 0.038 |
| TGATATAGCA | 1.03 ± 0.013 |
| AACATTATTT | 1.022 ± 0.0014 |
| TTTTCGAAAA | 1.03 ± 0.075 |
| TCTTGGGGAC | 1.14 ± 0.2 |
| AGGTGCTGGG | 1.03 ± 0.013 |

| Sequence | switch fluorescence ratio |
| --- | --- |
| GGCTATTGAT | 1.004 ± 0.0073 |
| TTAAAGCTTA | 1.02 ± 0.04 |
| TCGTTCAGCG | 0.997 ± 0.019 |
| GGCTGTGTTA | 0.9958 ± 0.0024 |
| TAAGGGGTAC | 1 ± 0.013 |
| AAAATTAAGA | 0.982 ± 0.025 |
| CTTGGGTTGG | 0.997 ± 0.028 |
| TTTACTTGTG | 1.01 ± 0.035 |
| TTTTACGACA | 1.15 ± 0.014 |
| GCCGGATTCG | 1.02 ± 0.013 |
| AGGAGGTGTC | 1.06 ± 0.11 |
| CGATGTCAGC | 1.073 ± 0.0036 |
| AGAGAGTTAT | 1.02 ± 0.011 |
| ATGTCTGGGA | 1 ± 0.037 |
| CATTTTGCGT | 0.972 ± 0.035 |
| GGTTCTTTTT | 1.02 ± 0.011 |
| AAAGGGGGTA | 0.986 ± 0.015 |
| AGAGTGGTGG | 0.9769 ± 0.0097 |
| TCGAGGCGGG | 1.18 ± 0.21 |
| CGTACAGATA | 0.994 ± 0.027 |
| ACTTAATTGT | 1.07 ± 0.084 |
| GTTGCTACCT | 1.05 ± 0.038 |
| ACAAGAGATA | 1.01 ± 0.015 |
| GAATGGATGG | 1 ± 0.011 |
| CGATCTTTAC | 1.29 ± 0.017 |

| Sequence | switch fluorescence ratio |
| --- | --- |
| GGATGATTTG | 0.968 ± 0.025 |
| TTTTTAAATA | 0.986 ± 0.023 |
| GGGGGTGGTT | 0.99 ± 0.037 |
| TTCTGGGGGA | 0.992 ± 0.039 |
| AGACTAAAAG | 0.986 ± 0.015 |
| AGATAGGGAT | 1.04 ± 0.053 |
| GGATAAGGAC | 0.984 ± 0.019 |
| GTATTTTGCG | 1.12 ± 0.26 |
| TGCAACCTTG | 1.0397 ± 0.0007 |
| ATGATTTTTC | 0.976 ± 0.039 |
| TGTATAAGGT | 0.966 ± 0.023 |
| GATGTTGTGA | 0.9999 ± 0.0076 |
| TGTGGGCTGG | 1.02 ± 0.012 |
| AAGGGAGCAC | 1.02 ± 0.023 |
| TAGGTCGGCC | 1.004 ± 0.0061 |
| TTCGGTTGGG | 0.986 ± 0.029 |
| CCTGGCTCAT | 1.06 ± 0.037 |
| TAAAAATCGA | 0.993 ± 0.0013 |
| TTCAATGCTC | 2.17 ± 0.82 |
| TATCACACTG | 1.09 ± 0.12 |
| ACGTTATTTA | 1.1534 ± 0.0011 |
| TACGTGGTAG | 1.06 ± 0.05 |
| CGGGTGTAAG | 1.01 ± 0.033 |
| TGATGATGAG | 0.996 ± 0.013 |
| AGGTAAGCTA | 1.025 ± 0.005 |
